Changes are numbered by the printed parent chain.
B1: VRDN-02072 (antibody, V domains shown)
VH: QVQLQESGPGLVKPSETLSLTCTVSGYSITGGYLWNWIRQPPGKGLEWIGYIHYDGTNNYKPSLKDRVTISRDTSKNQFSLKLSSVTAADTAVYYCARHGRVFFDYWGQGTLVTVSS
VL: DIVMTQSPLSLPVTPGEPASISCRSHQSIVHSNGNTYLQWYLQKPGQSPQLLIYKVSNRLYGVPDRFSGSGSGTDFTLKISRVEAEDVGVYYCFQGSHVHWTFGQGTKVEIK
B2: VRDN-02015 (antibody, V domains shown)
VH: B1 VH with H53S, Y54H, H99Y
VL: B1 VL with H26S, H100P
B3: VRDN-02007 (antibody, V domains shown)
VH: B1 VH with G32H, H53S, H99Y
VL: B1 VL with H26S, H100P
B4: VRDN-02075 (antibody, V domains shown)
VH: B1 VH with H53S, D55H
VL: B1 VL
B5: VRDN-02014 (antibody, V domains shown)
VH: B1 VH with H99Y
VL: B1 VL with H26S, H100P
B6: VRDN-02073 (antibody, V domains shown)
VH: B1 VH
VL: B1 VL with H100P, W101H
B7: VRDN-02010 (antibody, V domains shown)
VH: B1 VH with W35H, H53S, H99Y
VL: B1 VL with H26S, H100P
B8: VRDN-02009 (antibody, V domains shown)
VH: B1 VH with L34H, H53S, H99Y
VL: B1 VL with H26S, H100P
B9: VRDN-02011 (antibody, V domains shown)
VH: B1 VH with N36H, H53S, H99Y
VL: B1 VL with H26S, H100P
B10: VRDN-02013 (antibody, V domains shown)
VH: B1 VH with I52H, H53S, H99Y
VL: B1 VL with H26S, H100P
B11: VRDN-02008 (antibody, V domains shown)
VH: B1 VH with Y33H, H53S, H99Y
VL: B1 VL with H26S, H100P
B12: VRDN-02076 (antibody, V domains shown)
VH: B1 VH with H53S, D55H
VL: B1 VL with H100P, W101H
B13: VRDN-02012 (antibody, V domains shown)
VH: B1 VH with Y51H, H53S, H99Y
VL: B1 VL with H26S, H100P
B14: VRDN-02074 (antibody, V domains shown)
VH: B1 VH with H53S, D55H
VL: B1 VL with Q95H, H100P

How the values were obtained:
[1] = molecular target: Recombinant human his-tagged IGF R extracellular domain protein (human) (UniProt P08069); assay: SPR, Ab captured via anti-huIgG Fc, pH 7.4
[2] = molecular target: Recombinant human his-tagged IGF R extracellular domain protein (human) (UniProt P08069); assay: SPR, Ab captured via anti-huIgG Fc, dissociation at pH 6

Binder	Kd [1]	koff [1]	kon [1]	Kd [2]	koff [2]	kon [2]
B1	0.281 nM	3.57e-05 s⁻¹	127000 M⁻¹ s⁻¹	0.269 nM	5.3e-05 s⁻¹	197000 M⁻¹ s⁻¹
B2	0.51 nM	4.57e-05 s⁻¹	89500 M⁻¹ s⁻¹	0.961 nM	8.79e-05 s⁻¹	91400 M⁻¹ s⁻¹
B3	12.8 nM	0.000743 s⁻¹	58000 M⁻¹ s⁻¹	10.2 nM	0.00188 s⁻¹	184000 M⁻¹ s⁻¹
B4	0.237 nM	2.76e-05 s⁻¹	116000 M⁻¹ s⁻¹	0.188 nM	5.52e-05 s⁻¹	294000 M⁻¹ s⁻¹
B5	0.697 nM	6.19e-05 s⁻¹	88700 M⁻¹ s⁻¹	1.11 nM	0.000153 s⁻¹	138000 M⁻¹ s⁻¹
B6	0.261 nM	3.13e-05 s⁻¹	120000 M⁻¹ s⁻¹	0.267 nM	4.77e-05 s⁻¹	179000 M⁻¹ s⁻¹
B7	6.95 nM	0.00311 s⁻¹	447000 M⁻¹ s⁻¹	7.61 nM	0.00074 s⁻¹	97200 M⁻¹ s⁻¹
B8	0.442 nM	3.98e-05 s⁻¹	90000 M⁻¹ s⁻¹	0.967 nM	8.4e-05 s⁻¹	86900 M⁻¹ s⁻¹
B9	0.432 nM	4.55e-05 s⁻¹	105000 M⁻¹ s⁻¹	0.836 nM	7.81e-05 s⁻¹	93400 M⁻¹ s⁻¹
B10	0.674 nM	5.45e-05 s⁻¹	80800 M⁻¹ s⁻¹	1.17 nM	0.000109 s⁻¹	93200 M⁻¹ s⁻¹
B11	16.6 nM	0.0206 s⁻¹	1.24e+06 M⁻¹ s⁻¹	13.1 nM	0.00143 s⁻¹	109000 M⁻¹ s⁻¹
B12	0.21 nM	2.46e-05 s⁻¹	117000 M⁻¹ s⁻¹	0.178 nM	6.76e-05 s⁻¹	381000 M⁻¹ s⁻¹
B13	0.589 nM	5.41e-05 s⁻¹	91800 M⁻¹ s⁻¹	1.01 nM	0.000103 s⁻¹	102000 M⁻¹ s⁻¹
B14	0.301 nM	3.98e-05 s⁻¹	132000 M⁻¹ s⁻¹	0.25 nM	5.81e-05 s⁻¹	232000 M⁻¹ s⁻¹

Reference: patent US20240360227A1
